This assay deals with αVβ3 integrin (rat (endogenous in primary astrocytes)) (UniProt Q8R2H2).

Results on one molecule are retold here after publication PMC9996972.

Chain of UniProt Q8R2H2 (Q8R2H2 whole entry, looked up): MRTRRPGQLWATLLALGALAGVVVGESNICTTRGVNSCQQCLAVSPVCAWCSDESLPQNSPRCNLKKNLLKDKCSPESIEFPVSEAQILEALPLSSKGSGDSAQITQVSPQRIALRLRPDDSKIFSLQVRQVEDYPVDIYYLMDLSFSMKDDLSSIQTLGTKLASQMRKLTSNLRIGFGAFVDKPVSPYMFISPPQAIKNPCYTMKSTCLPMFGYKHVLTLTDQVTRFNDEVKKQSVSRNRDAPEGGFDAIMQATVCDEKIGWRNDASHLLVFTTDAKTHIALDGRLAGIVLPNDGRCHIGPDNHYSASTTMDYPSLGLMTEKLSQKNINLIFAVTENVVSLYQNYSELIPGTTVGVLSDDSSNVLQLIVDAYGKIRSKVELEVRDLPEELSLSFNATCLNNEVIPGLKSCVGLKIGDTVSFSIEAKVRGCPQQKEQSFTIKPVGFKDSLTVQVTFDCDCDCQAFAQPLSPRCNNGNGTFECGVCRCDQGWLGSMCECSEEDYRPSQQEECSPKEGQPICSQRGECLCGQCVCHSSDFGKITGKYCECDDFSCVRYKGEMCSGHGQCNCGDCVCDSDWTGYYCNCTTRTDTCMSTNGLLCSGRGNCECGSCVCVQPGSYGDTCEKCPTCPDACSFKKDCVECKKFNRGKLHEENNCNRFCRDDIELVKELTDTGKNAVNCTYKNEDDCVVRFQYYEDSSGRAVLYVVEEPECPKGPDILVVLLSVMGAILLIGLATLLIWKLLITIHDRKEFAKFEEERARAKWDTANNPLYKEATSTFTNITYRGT

B1: Thy-1-Fc fusion protein (Fc fusion)
chain: QKVTSLTACLVNQNLRLDCRHENNTKDNSIQHEFSLTREKRKHVLSGTLGIPEHTYRSRVTLSNQPYIKVLTLANFTTKDEGDYFCELQVSGANPMSSNKSISVYRDKLVKC
B1: the wound closure (migration) of primary astrocytes pretreated with Hp OMVs (2.5 µg/ml, 12 h), then stimulated with Thy-1-Fc/Protein-A for 24 h was found to be 25% and the wound closure (migration) of primary astrocytes pretreated with TNF (10 ng/ml, 48 h), then stimulated with Thy-1-Fc/Protein-A for 24 h was 10%.
